Assay results as given in patent US20250026836A1 (UCB, published 2025).

Assays:
[1] = biological target: T1, HLA-G naturally expressed on human choriocarcinoma trophoblastic JEG3 cells (human, UniProt P17693 25-338; P61769 21-119); assay: flow cytometry on JEG3 WT cells, IgG1 100-0.05 nM
T1 construct: whole, on cells; also called JEG3 WT

[2] = biological target: T1, HLA-G naturally expressed on human …; assay: flow cytometry, blocking of ILT2rbFc binding to JEG3 cells
[3] = biological target: human HLA-G and β2 microglobulin stably expressed on the HLAG-β2m-Reh cell line (human, UniProt P17693 25-338; P61769 21-119); assay: cell-based or functional assay
[4] = biological target: T2, Human HLA-G ECD + B2m (soluble, AVItev10His tag) (human); assay: SPR, 25 C, hIgG1 captured via anti-human Fc, HLA-G ECD+B2m titrated from 50 nM, another assay
T2 construct: also called soluble HLA-G

[5] = biological target: HLA-C consensus sequence, co-expressed with B2m on HEK293 cells (human, UniProt P10321 25-366; P61769 21-119); assay: flow cytometry on HEK293 cells transfected with HLA-C consensus/B2m
[6] = biological target: HLA-A consensus sequence, co-expressed with B2m on HEK293 cells (human, UniProt P04439 25-365; P61769 21-119); assay: flow cytometry on HEK293 cells transfected with HLA-A consensus/B2m
[7] = biological target: T1, HLA-G naturally expressed on human …; assay: flow cytometry, blocking of ILT2rbFc binding to JEG3 cells, large volume
[8] = biological target: T3, HLA-G wild type, membrane-bound, co-expressed with B2m on transfected cells (HEK293 / HCT116) (human, UniProt P17693 25-338; P61769 21-119); assay: flow cytometry on HEK293 cells transfected with HLA-G/B2m
T3 construct: Same construct transiently expressed on HEK293 (Expi293) or HCT116 cells; the cell line is named under assay; also called HLA-G WT; HEK-HLAG

[9] = biological target: HLA-F consensus sequence, co-expressed with B2m on HEK293 cells (human, UniProt P30511 22-346; P61769 21-119); assay: flow cytometry on HEK293 cells transfected with HLA-F consensus/B2m
[10] = biological target: HLA-E consensus sequence, co-expressed with B2m on HEK293 cells (human, UniProt P13747 22-358; P61769 21-119); assay: flow cytometry on HEK293 cells transfected with HLA-E consensus/B2m
[11] = biological target: T3, HLA-G wild type, membrane-bound, …; assay: flow cytometry, blocking of ILT2rbFc binding to HLA-G/B2m HEK293 cells
[12] = biological target: T3, HLA-G wild type, membrane-bound, …; assay: flow cytometry, blocking of ILT4rbFc binding to HLA-G/B2m HCT116 cells
[13] = biological target: HLA-B consensus sequence, co-expressed with B2m on HEK293 cells (human, UniProt P01889 25-362 at identity 0.96); P61769 21-119); assay: flow cytometry on HEK293 cells transfected with HLA-B consensus/B2m
[14] = biological target: T1, HLA-G naturally expressed on human …; assay: flow cytometry on JEG3 cells, 1.5 ml IgG solution, geometric mean of three independent assays; geometric mean of three independent assays
[15] = biological target: T2, Human HLA-G ECD + B2m (soluble, …); assay: SPR, 25 C, hIgG1 captured via anti-human Fc, HLA-G ECD+B2m titrated from 50 nM
[16] = biological target: T2, Human HLA-G ECD + B2m (soluble, …); assay: SPR, 25 C, hIgG1 captured via anti-human Fc, HLA-G ECD+B2m 50 nM as analyte, second experiment
[17] = biological target: T2, Human HLA-G ECD + B2m (soluble, …); assay: SPR, 25 C, hIgG1 captured via anti-human Fc, HLA-G ECD+B2m 50 nM as analyte, first experiment
[18] = biological target: T1, HLA-G naturally expressed on human …; assay: flow cytometry on JEG3 cells, 1.5 ml IgG1 solution, 10-0.0005 nM

Binder | EC50 [1] | IC50 [2] | EC50 (nM) of CDC, lot 1 [3] | EC50 (nM) of CDC, lot 2 [3] | EC50 (nM) of CDC, lot 3 [3] | Kd [4] | binding result [5] | binding result [6] | IC50 [7] | EC50 [8] | binding result [9] | binding result [10] | IC50 [11] | IC50 [12] | binding result [13] | EC50 [14] | Kd [15] | Kd [16] | Kd [17] | Kd [18]
Afucosylated HLA-G02 (antibody, human IgG1, kappa, afucosylated IgG1 (produced in FUT8 knock-out CHO-SXE cells), also called aF HLA-G02; Afucosylated HLA-02) heavy: not shown light: AIVLTQSPSSLSASVGDRVTITCQASQSIYSYLSWYQQKPGKAPKLLIYKASTLASGVPSRFSGSGSGTDFTLTISSLQPEDFATYYCQNHWNVGGNGWPFGGGTKVEIKRTVAAPSVFIFPPSDEQLKSGTASVVCLLNNFYPREAKVQWKVDNALQSGNSQESVTEQDSKDSTYSLSSTLTLSKADYEKHKVYACEVTHQGLSSPVTKSFNRGEC | 0.2 nM | 0.51 nM | 2.51 nM | 3.29 nM | 3.7 nM | 4.4 nM | no binding (tested: IgG up to 100 nM) | no binding (tested: IgG up to 100 nM) | 0.021 nM | 0.92 nM | no binding (tested: IgG up to 100 nM) | no binding (tested: IgG up to 100 nM) | 0.83 nM | 1.38 nM | no binding (tested: IgG up to 100 nM) | 0.021 nM |  |  |  | 
HLA-G02 (humanised VR12389gL2gH16 IgG1, conventional i.e. fucosylated) (antibody, also called conventional HLA-G02) heavy: not shown light: AIVLTQSPSSLSASVGDRVTITCQASQSIYSYLSWYQQKPGKAPKLLIYKASTLASGVPSRFSGSGSGTDFTLTISSLQPEDFATYYCQNHWNVGGNGWPFGGGTKVEIKRTVAAPSVFIFPPSDEQLKSGTASVVCLLNNFYPREAKVQWKVDNALQSGNSQESVTEQDSKDSTYSLSSTLTLSKADYEKHKVYACEVTHQGLSSPVTKSFNRGEC | 0.43 nM | 0.53 nM |  |  |  | 4.3 nM | no binding (tested: IgG up to 100 nM) | no binding (tested: IgG up to 100 nM) |  | 1.65 nM | no binding (tested: IgG up to 100 nM) | no binding (tested: IgG up to 100 nM) | 1.37 nM | 1.31 nM | no binding (tested: IgG up to 100 nM) |  | 5.09 nM | 5.42 nM | 4.78 nM | 0.02 nM
